# T1: DEN2 cNS2B-NS3pro complex (Dengue virus 2 (DEN2 / DENV-2), UniProt P14340 1394-1440; P14340 1476-1660)
# T1 sequence 1: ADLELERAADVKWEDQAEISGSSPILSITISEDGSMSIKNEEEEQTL
# T1 sequence 2: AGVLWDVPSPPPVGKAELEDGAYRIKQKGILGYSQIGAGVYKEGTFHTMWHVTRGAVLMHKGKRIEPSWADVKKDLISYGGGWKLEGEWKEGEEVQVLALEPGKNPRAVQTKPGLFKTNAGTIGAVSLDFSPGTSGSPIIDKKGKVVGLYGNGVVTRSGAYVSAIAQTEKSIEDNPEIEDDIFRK
# B1: RetroMAD1 (other)
# chain: MGRICRCICGRGICRCICGVPGVGVPGVGGATGSDVNFDLSTATAKTYTKFIEDFRATLPFSHKVYDIPLLYSTISDSRRFILLDLTSYAYETISVAIDVTNVYVVAYRTRDVSYFFKESPPEAYNILFKGTRKITLPYTGNYENLQTAAHKIRENIDLGLPALSSAITTLFYYNAQSAPSALLVLIQTTAEAARFKYIERHVAKYVATNFKPNLAIISLENQWSALSKQIFLAQNQGGKFRNPVDLIKPTGERFQVTNVDSDVVKGNIKLLLNSRASTADENFITTMTLLGESVVEFPWALWKTMLKELGTMALHAGKAALGAAADTISQGTQVPGVGVPGVGKLAAALEHHHHHH
# Legend:
# [1] = biological target: T1, DEN2 cNS2B-NS3pro complex
# [2] = biological target: T1, DEN2 cNS2B-NS3pro complex; experiment: cell-based or functional assay
binder,measurement,setting,value
B1,Ki,[1],2.49 µM
same,IC50 of NS2B-NS3 protease inhibition,[2],4.99 µM
